Assay results as given in patent US20180305414A1.

Tests used:
[1] = molecular target: Fab prepared by papain treatment of human IgG (human); assay: binding capacity; Capto L resin, 20 mg/mL human Fab, acid elution, A280
[2] = molecular target: human IgG (available from the Chemo-Sero-Therapeutic Research Institute) (human); assay: binding capacity; Capto L resin, human IgG, acid elution, A280
[3] = molecular target: human IgG (available from the Chemo-Sero-Therapeutic Research Institute) (human); assay: binding capacity; binder immobilised on agarose gel, human IgG, acid elution, A280
[4] = molecular target: Fab prepared by papain treatment of human IgG (human); assay: binding capacity; binder immobilised on agarose gel, 20 mg/mL human Fab, acid elution, A280
[5] = molecular target: Fab prepared by papain treatment of human IgG (human); assay: binding capacity against Capto L
[6] = molecular target: human IgG (available from the Chemo-Sero-Therapeutic Research Institute) (human); assay: binding capacity against Capto L
[7] = molecular target: human IgG (available from the Chemo-Sero-Therapeutic Research Institute) (human); assay: binding capacity; binder immobilised on agarose gel, human IgG

Row | Molecule | Fab Binding Capacity [1] [mg/mL gel] | IgG Binding Capacity [2] [mg/mL gel] | IgG Binding Capacity [3] [mg/mL gel] | Fab Binding Capacity [4] [mg/mL gel] | amount of bound Fab fragment relative to Capto L [5] [times] | amount of bound IgG relative to Capto L [6] [times] | human IgG binding capacity relative to PL-024 [7] [%]
1 | Capto L (GE Healthcare KK) having a tetramer (Protein L) with the native sequence immobilized thereon | 30.9 | 43.6 |  |  |  |  | 
2 | hexameric multidomain polypeptide PL-624 (six linked modified domains of PL-024) (designed binder) AQHDEAGLALETPEEPREEVTIRVNLIFADGRTQTAEFRGTFEEATAEAYRYADLLARVNGEYTADLEDGGYTINIRFAGALETPEEPREEVTIRVNLIFADGRTQTAEFRGTFEEATAEAYRYADLLARVNGEYTADLEDGGYTINIRFAGALETPEEPREEVTIRVNLIFADGRTQTAEFRGTFEEATAEAYRYADLLARVNGEYTADLEDGGYTINIRFAGALETPEEPREEVTIRVNLIFADGRTQTAEFRGTFEEATAEAYRYADLLARVNGEYTADLEDGGYTINIRFAGALETPEEPREEVTIRVNLIFADGRTQTAEFRGTFEEATAEAYRYADLLARVNGEYTADLEDGGYTINIRFAGALETPEEPREEVTIRVNLIFADGRTQTAEFRGTFEEATAEAYRYADLLARVNGEYTADLEDGGYTINIRFAGALPSKSKKILKEAKKLNKAQAPKKKK |  |  | 95.8 | 75.9 | 2.4 | 2.2 | 151
